# Experiments:
# [1] = Western blot of transfected AR42J cells; settings: glycan lost; control: wild type
# [2] = immunofluorescence, anti-myc and anti-calnexin, AR42J cells; settings: glycan lost; control: wild type
protein,measurement,setting,value
somatostatin receptor type 2 (SSTR2): N9Q (protein) parent chain: MELTSEQFNGSQVWIPSPFDLNGSLGPSNGSNQTEPYYDMTSNAVLTFIYFVVCVVGLCGNTLVIYVILRYAKMKTITNIYILNLAIADELFMLGLPFLAMQVALVHWPFGKAICRVVMTVDGINQFTSIFCLTVMSIDRYLAVVHPIKSAKWRRPRTAKMINVAVWGVSLLVILPIMIYAGLRSNQWGRSSCTINWPGESGAWYTGFIIYAFILGFLVPLTIICLCYLFIIIKVKSSGIRVGSSKRKKSEKKVTRMVSIVVAVFIFCWLPFYIFNVSSVSVAISPTPALKGMFDFVVILTYANSCANPILYAFLSDNFKKSFQNVLCLVKVSGAEDGERSDSKQDKSRLNETTETQRTLLNGDLQTSI,expression_or_secretion,[1],decreases
same,localisation_or_trafficking,[2],changes

# — paper PMC8667150
